Test results: patent US20100196385A1 (AstraZeneca / MedImmune, published 2010)

What was measured:
full length human DLL4 [1] = biological target: T1, full length human DLL4 (human, UniProt Q9NR61 27-685); test: FACS competition, unlabeled antibody vs competitor Alexa-647 21H3RK, HEK293 cells with human DLL4
T1 construct: whole, on cells; also called native DLL4 expressed in HEK293 cells
Experimental: (§1) The ability of the purified DLL4 antibodies to inhibit the binding of other DLL4 antibodies to human DLL4 was assessed using a FACS assay. Briefly, antibodies were directly labelled with Alexa-647 using a commercially available labelling kit (e.g. Molecular Probes catalog #A30009, A-20186) as per the manufacturer's instructions. To determine the level of cross-competition, unlabelled anti-DLL4 antibodies (final concentration: 10-0.01 μg/ml) diluted in PBS containing 2% FCS were added to DLL4-expressing HEK 293 cells (as described in example 6; 50000 cells/well diluted in PBS containing 2% FCS) and incubated for 1 h at 4° C. Subsequently, Alexa-647 labeled anti-DLL4 antibodies were added at a final concentration of 0.1 μg/ml and plates were incubated for a further 1 h at 4° C. prior to washing and reading on a FACSCalibur instrument. Data that summarizes the ability of unlabeled antibodies (10, 1, 0.1 μg/ml) to compete with labeled 21H3RK for binding to human DLL4 is included in FIG. 3. Additional data that summarizes the ability of unlabeled antibodies to compete with labeled 21H3RK and 4B4 for binding to human DLL4 is included in Table 22.

human Dll1 [2] = biological target: T2, human Dll1 (human, UniProt O00548 18-723); test: FACS, up to 300 µg/ml, HEK-293 cells stably overexpressing human Dll1
T2 construct: whole, on cells
T2 sequence (looked up): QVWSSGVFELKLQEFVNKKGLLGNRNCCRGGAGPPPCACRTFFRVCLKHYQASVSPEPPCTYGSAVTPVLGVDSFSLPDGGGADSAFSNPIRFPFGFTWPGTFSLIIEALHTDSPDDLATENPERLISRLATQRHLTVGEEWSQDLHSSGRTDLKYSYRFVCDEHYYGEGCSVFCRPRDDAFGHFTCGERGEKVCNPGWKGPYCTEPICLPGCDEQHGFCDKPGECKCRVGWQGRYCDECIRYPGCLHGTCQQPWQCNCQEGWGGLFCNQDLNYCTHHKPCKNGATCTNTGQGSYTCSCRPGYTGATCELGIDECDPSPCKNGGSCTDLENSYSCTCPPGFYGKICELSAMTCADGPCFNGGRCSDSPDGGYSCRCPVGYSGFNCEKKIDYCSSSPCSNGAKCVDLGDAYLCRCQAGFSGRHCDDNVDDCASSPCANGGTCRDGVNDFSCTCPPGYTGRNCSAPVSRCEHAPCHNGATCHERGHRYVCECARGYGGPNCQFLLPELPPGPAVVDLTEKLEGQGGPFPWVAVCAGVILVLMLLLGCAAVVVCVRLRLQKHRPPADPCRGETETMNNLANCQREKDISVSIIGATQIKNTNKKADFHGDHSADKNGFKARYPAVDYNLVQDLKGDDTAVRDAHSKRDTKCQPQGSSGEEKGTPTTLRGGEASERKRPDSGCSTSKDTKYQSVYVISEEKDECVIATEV

human Dll1 [3] = biological target: T2, human Dll1; test: Flow cytometry on HEK293F cells transiently expressing HuDll1; 21H3RK, goat anti-human IgG-FITC
Source text: This specificity is employed to deduce the binding epitope of Mab 21H3RK to human DLL4. Chimeric variants were engineered with portions of the extracellular domain of DLL4 replaced with the corresponding segments of DLL1. […] The resulting variants were cloned into a mammalian expression vector encoding a human cytomegalovirus major immediate early (hCMVie) enhancer, promoter and 5′-untranslated region for transient mammalian expression. The chimeric variants were transiently expressed in HEK293F cells as membrane-bound proteins for flow cytometric characterization with Mab 21H3RK. 48 h post-transfection, HEK293F transfectants were incubated with 1 μg/ml of Mab 21H3RK for 1 h on ice in PBS, washed, then incubated with goat anti-human IgG-FITC (Jackson ImmunoResearch Laboratories, PA) and analyzed with a LSRII flow cytometer (BD Biosciences, CA). The expression levels of all chimeric variants were is monitored by incubating with a mixture of both goat anti-mouse DLL4 (which also recognizes human DLL4) and goat anti-human DLL1 polyclonal antibodies (both from R&D Systems., MN), then detected with porcine anti-goat IgG-PE (Invitrogen, CA).

full length human DLL4 [4] = biological target: T1, full length human DLL4; test: FACS competition, unlabeled antibody vs competitor Alexa-647 4B4, HEK293 cells with human DLL4
Experimental: as §1

human Jagged1 [5] = biological target: T3, human Jagged1 (human, UniProt P78504 34-1218); test: FACS, up to 300 µg/ml, HEK-293 cells stably overexpressing human Jagged1
T3 construct: whole, on cells
T3 sequence (P78504 34-1218): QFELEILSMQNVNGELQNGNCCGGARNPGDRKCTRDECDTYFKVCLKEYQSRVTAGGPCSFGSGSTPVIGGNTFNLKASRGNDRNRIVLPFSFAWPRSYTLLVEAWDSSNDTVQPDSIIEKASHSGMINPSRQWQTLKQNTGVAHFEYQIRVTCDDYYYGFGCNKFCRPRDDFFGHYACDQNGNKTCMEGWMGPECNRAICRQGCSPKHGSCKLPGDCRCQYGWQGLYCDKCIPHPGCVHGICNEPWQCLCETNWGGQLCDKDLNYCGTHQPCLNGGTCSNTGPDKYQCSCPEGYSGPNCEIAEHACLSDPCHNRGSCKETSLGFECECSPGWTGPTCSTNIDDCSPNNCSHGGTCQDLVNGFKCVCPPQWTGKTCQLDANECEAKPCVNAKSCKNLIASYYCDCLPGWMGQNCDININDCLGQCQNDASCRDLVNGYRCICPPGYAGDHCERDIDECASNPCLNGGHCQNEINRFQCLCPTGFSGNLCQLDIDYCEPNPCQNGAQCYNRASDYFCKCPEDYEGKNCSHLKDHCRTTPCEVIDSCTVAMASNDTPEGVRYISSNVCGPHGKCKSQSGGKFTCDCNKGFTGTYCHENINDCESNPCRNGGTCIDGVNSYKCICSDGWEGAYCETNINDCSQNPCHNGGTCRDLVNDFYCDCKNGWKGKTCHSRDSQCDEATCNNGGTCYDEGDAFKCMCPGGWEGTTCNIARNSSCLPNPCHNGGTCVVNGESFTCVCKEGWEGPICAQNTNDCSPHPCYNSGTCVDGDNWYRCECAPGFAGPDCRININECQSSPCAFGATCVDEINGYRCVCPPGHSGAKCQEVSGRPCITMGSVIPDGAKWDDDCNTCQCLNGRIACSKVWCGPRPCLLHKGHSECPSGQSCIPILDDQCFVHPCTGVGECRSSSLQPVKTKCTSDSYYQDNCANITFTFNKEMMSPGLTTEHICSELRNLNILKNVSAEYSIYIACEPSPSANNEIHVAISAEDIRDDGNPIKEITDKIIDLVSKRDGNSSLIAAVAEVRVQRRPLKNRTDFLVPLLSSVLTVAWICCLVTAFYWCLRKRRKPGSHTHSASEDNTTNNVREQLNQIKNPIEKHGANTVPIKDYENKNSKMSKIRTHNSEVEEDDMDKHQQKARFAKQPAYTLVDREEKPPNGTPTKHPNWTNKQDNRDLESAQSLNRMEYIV

[6] = biological target: T4, human soluble DLL4 (R&D systems catalog #1056-D4-050) (human, UniProt Q9NR61 27-524); test: Biacore T100, antibody immobilised, soluble human DLL4 as analyte
T4 construct: Catalog number as printed; perhaps the same product as #1506-D4; also called antigen DLL4
T4 sequence (Q9NR61 27-524 limits assumed): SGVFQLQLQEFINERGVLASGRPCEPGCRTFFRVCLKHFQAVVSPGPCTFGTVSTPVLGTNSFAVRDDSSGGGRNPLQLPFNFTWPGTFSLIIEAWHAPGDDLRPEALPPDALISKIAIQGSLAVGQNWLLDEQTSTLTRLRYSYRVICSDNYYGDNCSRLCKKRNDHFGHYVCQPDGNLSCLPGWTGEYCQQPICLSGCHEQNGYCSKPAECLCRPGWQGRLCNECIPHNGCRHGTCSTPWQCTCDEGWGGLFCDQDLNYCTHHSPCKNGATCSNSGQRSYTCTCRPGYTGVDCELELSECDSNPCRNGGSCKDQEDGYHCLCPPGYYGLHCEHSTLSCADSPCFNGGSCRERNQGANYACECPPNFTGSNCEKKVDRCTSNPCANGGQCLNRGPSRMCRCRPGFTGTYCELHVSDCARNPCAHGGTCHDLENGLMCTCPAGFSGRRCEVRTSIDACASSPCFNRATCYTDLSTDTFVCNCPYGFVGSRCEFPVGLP
Experimental: For Biacore analysis, each purified anti-DLL4 antibody was immobilized on a CM5 sensor chip within a T100 using standard amine coupling. Immobilization levels were kept below 200 RU. The concentration of DLL4 was determined by UV-VIS spectroscopy using a molar absorptivity at 280 nm of 110, 440 M⁻¹cm⁻¹, which was calculated from the sequence of the protein using a method developed by Pace et al. (G. R. Grimsley and C. N. Pace (2003) in Current Protocols in Protein Science (John Wiley & Sons, Inc.), 3.1.1-3.1.9). The antigen DLL4 (R&D systems; human catalog #1056-D4-050 or mouse, catalog #1389-D4-050) was diluted to a starting concentration of 32-64 nM and tested in a 3-fold dilution series in triplicate. The running buffer contained HBS-P with 0.1 mg/ml BSA and binding responses were collected at 23° C. Bound complexes were regenerated with a 15 s pulse of 10 mM of sodium hydroxide. The response data were globally fitted with a simple 1:1 interaction model and Table 20 summarizes the kₐ, kd and KD estimates obtained for the anti-DLL4 antibodies when binding to human soluble DLL4 was assessed.

full length mouse DLL4 = biological target: T5, full length mouse DLL4 (mouse, UniProt Q9JI71 27-686); test: FACS competition vs mouse Notch1/Fc, HEK293 cells with mouse DLL4
T5 construct: whole, on cells
T5 sequence (Q9JI71 27-686): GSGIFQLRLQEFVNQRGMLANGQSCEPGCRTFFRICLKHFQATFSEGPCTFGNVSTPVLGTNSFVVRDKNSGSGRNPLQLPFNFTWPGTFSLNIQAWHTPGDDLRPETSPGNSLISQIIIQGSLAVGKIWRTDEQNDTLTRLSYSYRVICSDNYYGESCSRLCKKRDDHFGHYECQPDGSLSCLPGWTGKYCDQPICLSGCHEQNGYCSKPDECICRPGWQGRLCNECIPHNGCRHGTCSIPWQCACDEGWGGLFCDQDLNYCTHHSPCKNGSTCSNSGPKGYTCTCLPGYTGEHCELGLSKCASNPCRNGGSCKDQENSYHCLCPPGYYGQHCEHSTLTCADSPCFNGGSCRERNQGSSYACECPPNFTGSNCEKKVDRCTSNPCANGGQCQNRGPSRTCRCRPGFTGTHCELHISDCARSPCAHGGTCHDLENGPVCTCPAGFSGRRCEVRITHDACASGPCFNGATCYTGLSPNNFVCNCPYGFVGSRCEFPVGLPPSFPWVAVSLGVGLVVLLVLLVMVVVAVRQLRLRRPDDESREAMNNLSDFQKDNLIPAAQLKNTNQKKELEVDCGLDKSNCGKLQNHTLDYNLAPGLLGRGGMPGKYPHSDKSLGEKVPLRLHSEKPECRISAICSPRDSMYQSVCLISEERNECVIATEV
Experimental: (§2) Further experiments were performed on selected antibodies using HEK293 cells that were stably transfected with either human, mouse or cynomolgus monkey DLL4 using retroviral constructs. In these experiments, anti-DLL4 antibodies (final concentration: 10-0.01 μg/ml) diluted in PBS containing 2% FCS were added to DLL4-expressing HEK 293 cells (50000 cells/well diluted in PBS containing 2% FCS) and incubated for 1 h at 4° C. Subsequently, Alexa-647 labeled human, rat or APC labeled mouse Notch1/Fc (e.g. R&D Systems, catalog #3647-TK-050, 1057-TK-050, 5267-TK-050, respectively) was added at a final concentration of 0.01-0.5 μg/ml and plates were incubated for a further 2 h at 4° C. prior to washing and reading on a FACSCalibur instrument.

full length human DLL4 [7] = biological target: T1, full length human DLL4; test: FACS competition vs human Notch1/Fc, HEK293 cells with human DLL4
Experimental: as §2

full length human DLL4 [8] = biological target: T1, full length human DLL4; test: FACS titration, HEK293 cells with human DLL4
Experimental: The binding affinities of the purified antibodies for DLL4 was estimated using is both FACS and BIAcore techniques. […] The cells were then washed and incubated with goat anti-human IgG-Fc-Cy5+5 μg/mL 7-Amino-Actinomycin (7AAD) for 30 minutes at 4° C.
In this equation, F=mean fluorescence, LT=total molecular mAb concentration, P′=proportionality constant that relates arbitrary fluorescence units to bound mAb, M=cellular concentration in molarity, n=number of receptors per cell, B=background signal, and KD=equilibrium dissociation constant. For each mAb titration curve an estimate for KD is obtained as P′, n, B, and KD are allowed to float freely in the nonlinear analysis. Table 20 summarizes the affinity estimates for the anti-DLL4 antibodies for human and cynomolgus monkey DLL4 derived using the methodology described above

human Jagged1 [9] = biological target: T3, human Jagged1; test: FACS, 5 µg/ml, 293T cells with human Jagged1
Outline: (§3)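 Flow cytometry; 1 h antibody staining at 4 °C in PBS/2% FCS. Value = geometric mean fluorescence shift over mock-transfected cells.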

human Jagged1 [10] = biological target: T3, human Jagged1; test: FACS, 5 µg/ml, 293T cells with human Jagged1 vs mock
Outline: as §3

human Jagged1 [11] = biological target: T3, human Jagged1; test: FACS, 1 µg/ml, 293T cells with human Jagged1 vs mock
human Jagged1 [12] = biological target: T3, human Jagged1; test: FACS, 0.2 µg/ml, 293T cells with human Jagged1 vs mock

T1 sequence (Q9NR61 27-685): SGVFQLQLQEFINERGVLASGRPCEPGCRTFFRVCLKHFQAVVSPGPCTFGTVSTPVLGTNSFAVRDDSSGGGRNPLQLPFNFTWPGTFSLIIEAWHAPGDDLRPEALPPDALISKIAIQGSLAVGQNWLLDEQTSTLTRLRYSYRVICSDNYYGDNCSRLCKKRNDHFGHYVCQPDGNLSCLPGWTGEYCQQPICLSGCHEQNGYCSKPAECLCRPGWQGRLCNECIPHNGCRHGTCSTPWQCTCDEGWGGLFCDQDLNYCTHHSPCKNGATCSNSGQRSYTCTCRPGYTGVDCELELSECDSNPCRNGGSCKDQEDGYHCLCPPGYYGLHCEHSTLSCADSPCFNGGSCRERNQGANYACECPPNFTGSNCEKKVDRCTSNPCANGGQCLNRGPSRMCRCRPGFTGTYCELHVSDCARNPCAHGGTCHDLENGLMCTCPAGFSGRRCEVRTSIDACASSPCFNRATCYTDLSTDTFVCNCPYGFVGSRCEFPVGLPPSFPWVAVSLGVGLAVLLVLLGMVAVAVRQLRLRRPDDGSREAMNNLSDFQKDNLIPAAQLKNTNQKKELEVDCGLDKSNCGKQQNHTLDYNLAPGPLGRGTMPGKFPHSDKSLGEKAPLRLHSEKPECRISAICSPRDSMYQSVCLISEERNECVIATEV

B1: 21H3RK (antibody, V domains shown)
VH: QVQLVQSGAEVKKPGASVKVSCKASGYTFTNYGITWVRQAPGQGPEWMGWISAYNGNTNYAQKLQDRVTVTTDTSTSTAYMELRSLRSDDTAVYYCARDRVPRIPVTTEAFDIWGQGTMVTVSS
VL: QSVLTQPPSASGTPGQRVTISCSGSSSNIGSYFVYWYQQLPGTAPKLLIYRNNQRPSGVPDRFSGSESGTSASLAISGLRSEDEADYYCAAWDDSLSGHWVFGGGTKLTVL
notes: also called Mab 21H3RK; Monoclonal 21H3RK
Full length human DLL4 [1]
  IC50: 0.214 µg/mL
Human Dll1 [2]
  fold over background: < 2.5 fold
Human Dll1 [3]
  binding result: no binding (tested: 1 ug/ml (single concentration))
Full length human DLL4 [4]
  IC50: 0.223 µg/mL
Human Jagged1 [5]
  fold over background: < 2.5 fold

B2: 21H3RK IgG1 (antibody, V domains shown)
VH: QVQLVQSGAEVKKPGASVKVSCKASGYTFTNYGITWVRQAPGQGPEWMGWISAYNGNTNYAQKLQDRVTVTTDTSTSTAYMELRSLRSDDTAVYYCARDRVPRIPVTTEAFDIWGQGTMVTVSS
VL: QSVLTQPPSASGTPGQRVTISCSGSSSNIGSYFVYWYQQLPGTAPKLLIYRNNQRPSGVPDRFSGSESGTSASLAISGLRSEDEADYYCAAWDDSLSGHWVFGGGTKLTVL
notes: IgG1; VL is 21H3 VLOP1 (R107K)
[6]
  Kd: 0.493 nM
  koff: 0.000166 s⁻¹
  kon: 337000 M⁻¹ s⁻¹
Full length mouse DLL4
  IC50: 42 nM
Full length human DLL4 [7]
  IC50: 0.58 nM
Full length human DLL4 [8]
  Kd: 0.155 nM

B3: human Notch3/Fc chimera (Fc fusion, UniProt Q9UM47 40-467, looked up)
chain: APPCLDGSPCANGGRCTQLPSREAACLCPPGWVGERCQLEDPCHSGPCAGRGVCQSSVVAGTARFSCRCPRGFRGPDCSLPDPCLSSPCAHGARCSVGPDGRFLCSCPPGYQGRSCRSDVDECRVGEPCRHGGTCLNTPGSFRCQCPAGYTGPLCENPAVPCAPSPCRNGGTCRQSGDLTYDCACLPGFEGQNCEVNVDDCPGHRCLNGGTCVDGVNTYNCQCPPEWTGQFCTEDVDECQLQPNACHNGGTCFNTLGGHSCVCVNGWTGESCSQNIDDCATAVCFHGATCHDRVASFYCACPMGKTGLLCHLDDACVSNPCHEDAICDTNPVNGRAICTCPPGFTGGACDQDVDECSIGANPCEHLGRCVNTQGSFLCQCGRGYTGPRCETDVNECLSGPCRNQATCLDRIGQFTCICMAGFTGTYCE
notes: Positive control for Jagged1; also called N3 Fc; Fc part of the bought chimera not given, not described
Human Jagged1 [9]
  Jagged1/293T X Geo mean: 51
Human Jagged1 [10]
  Jagged1/mock ratio: 3.87
Human Jagged1 [11]
  Jagged1/mock ratio: 2.88
Human Jagged1 [12]
  Jagged1/mock ratio: 1.96
